The text below walks through data of the DeepSol protein solubility set.

The series in a line: soluble on expression in E. coli; label from the status in PepcDB or PDB records.
Turning to “METFRTLLAKAALGNGISSTAYDTAWVAKLGQLDDELSDLALNWLCERQLPDGSWGAEFPFCYEDRLLSTLAAMISLTSNKHRRRRAAQVEKGLLALKNLTSGAFEGPQLDIKDATVGFELIAPTLMAEAARLGLAICHEESILGELVGVREQKLRKLGGSKINKHITAAFSVELAGQDGVGMLDVDNLQETNGSVKYSPSASAYFALHVKPGDKRALAYISSIIQAGDGGAPAFYQAEIFEIVWSLWNLSRTDIDLSDPEIVRTYLPYLDHVEQHWVRGRGVGWTGNSTLEDCDTTSVAYDVLSKFGRSPDIGAVLQFEDADWFRTYFHEVGPSISTNVHVLGALKQAGYDKCHPRVRKVLEFIRSSKEPGRFCWRDKWHRSAYYTTAHLICAASNYDDALCSDAIGWILNTQRPDGSWGFFDGQATAEETAYCIQALAHWQRHSGTSLSAQISRAGGWLSQHCEPPYAPLWIAKTLYCSATVVKAAILSALRLVDESNQ”, the “soluble on expression in E. coli” value is “not soluble”.
With “METKFYNHQGGHLILYFAGWGTPPDAVNHLILPENHDLLICYDYQDLNLDFDFSAYRHIRLVAWSMGVWAAERALQGIRLKSATAVNGTGLPCDDNFGIPCTVFKGTLENLTENTRLKFERRMCGDKASFEDYQQFPARPFGEIHQELIALFAMIGQDRRTDLIRWTNALVGSGDKIFMPANQHRYWTPRCTVREIDVGHYLFSRFTHWSALWNH”, the “soluble on expression in E. coli” value is “not soluble”.
For the sequence “METKWRNGDIVQPVLNPEPNTVSYSQSSLIHLVGPSDCTLHGFVHGGVTMKLMDEVAGIVAARHCKTNIVTASVDAINFHDKIRKGCVITISGRMTFTSNKSMEIEVLVDADPVVDNSQKRYRAASAFFTYVSLNQEGKPMPVPQLVPETEDEKKRFEEGKGRYLQMKAKRQGHTEPQP”, the “soluble on expression in E. coli” value was “soluble”.
On to “METMCEVKVITGTSAAAEAAKLADVDVIAAYPITPQTTCVEKLAEFVANGELDAEYIKVESEHSAMSACIGAAATGARTFTATASQGLALMHEMLFIASGMRLPIVMMVANRALSAPINIWNDHQDSIAERDSGWIQIYVEDNQETLDSIIQAYKIAENEDVLLPVMVCLDGFILTHTVEPVTIPKAERVREFLGVYEPKHAYLDPDRPITQGPVGVPDCYMETRKQIEEAMERAKKVIRDVNEEFAEWFKRKY”, for which the “soluble on expression in E. coli” value is on record as “not soluble”.
Turning to “METRRRSSRLQQQTTSDLNAREEPQPSEPPVKRARGAKKNEAPSTAPMPPKTTKKSTKPSRKQGSPIEAELDEMGFELENEEEAEIVVQKSKKNGRKLVKIDENLRISAENGSKSSNFLEENRMEIDEKPGNLAKKSSKNGSRVVKSDEKSENLVQSVPKSTTNGSKVAIIEDDPEIRAENGVKSSKSDEKPDFSAQNGSKLAQNAPNRISRPRRSVTTAKKVSYVPSDDQLELSSSSSELESSSEDEDTEIRPKTGSKIAKKREKSFKISESESSSESPDDESEASEASEDPSIPGPSEPRKRRKIQRKSTLSSGGATTKDLHWPKCSKASIARKTGNPGSKNAAKKPAKSSLRMAQKQKPDQPWKKNLKDYETDRKLAKGERRMLEYRHVAHAYVARGKIEEITYDEAYKLHEMMKKAYFAGRSLLDAAVLDPVEFEKSQKNVKKSEKNDEKNTAGDSSSSEDEWEEMEHFQPPIIDDNIEVSIDHEGGGGDDGEEVVKDWWAIYLRQEINRKIREMWENTHKLLFCLLRGLELTTRLVVNVRAIPRRWDKTQQKELQNELSKFRELSRSRSTTPGEKSLEIQEKSGEKSQKPAKKGQKSEKKAAKKVVVEERNYWVEYWQPREKRWICVDPLHKSVDEPLSIHEHSASPISYVFAIDNKQGICEVSQRYAMDCVKQDFRRRRTNPKWVAWTLFLPPFAANSERKKWEMMQMREDLVKRPLPTVMSEYKNHPLYALEKDLLKFEAIYPPPATQKPLGQIRGHNVYPRSTVFTLQGENNWLKLARSVKIGEKPYKIVKARPDPRIPVEDREDKFLDVYGYWQTEKYRRPPLKNGKIPHNEYGNVYMFNENMCPLDCTYLKLSGLVQISRKLGKQCIPAVVGWAFDGGFTHPVIDGAIVLEKDAIDFINAWEKLESGRAEKEEKQRVEKIHENWKKLIKGMLRLAYVRKQFGHPAAEKPTKRQKIGGKTEEIEENEGGAGPPSSVDHITDNTEQITPMHGFSLDDFINKKK”, the “soluble on expression in E. coli” value is “soluble”.
For “METTFALLNFKESLCYIYPPTEPVRYVSSIVALNVHSPNGTGDWHSAKALSDRAYPEKFYIYGENQERNTNHLFGDNGIIDGTDRLNKMGYFPENIPVWLADHPRACVDYLYTAVLQTGSIGRVILDDWFPSDEDKQSVYDLLNQIEPHLNTQEWENLQLWKRKNPIM”, the “soluble on expression in E. coli” value is given as “not soluble”.
Turning to “METTHSLTTDNAPTEDQPILSVTDLHMVSGTHLPELKIYAGLSLVHCGRENSATTLSMTLAGRMKPISGTIELKVQDSDKVLTTPRQLHKAVALAGVPELDSLERLVPVTAAVREQLAWSQPWYRRVPRDVTKSETFINAAKLLDLPNSKEFARQSIGDLDPLTRFRLRIALALIARPHTDLLIVDDIDQIRSLRLRADLLRELKNIAASIPVVAMSANDDVDKIADHEIHVAGALQRKQKAKA”, the “soluble on expression in E. coli” value is listed as “not soluble”.
Next, “MEVKMPFVVFVKRSVRFPGKHSYMIGGKSLLEIIVSKLSNIGKVYVFTKDKDIICNGCSIEFDTTNGIITDSVLAAIDKFGTFFAVAGDMPLIKPELVSKMLSQYKGSPLFPRHMDGMLEPLFGIYTEDLYNALKEYLDKGGESLHAFLLTQPLQYYDIGSDDEVNFININYKSDIEKYRDLLVQLLEHHHHHH”: “soluble”; “MEVPVHPLSQDPTAAWREISKTQRVIKVTMKPPTTTVAPNKARVVCMSDTHSLTPYIKFDIPDGDIFIHAGDFTKCGQLEEVEEFNTWIGALPHRHKIVIAGNHELSFDRTFTHPFQKSKSHASSSKHTGMSILDDLPTLGNAKENLESAVQTQNVRDVLTNCRYLEDELLEIWGIQIYGSPWQPEFCRWAFNVPRGTACLDKWNQIPEGIDILVTHTPPVGHGDLCCSGVRAGCVELLSTVQQRVRPKYHVFGHVHEGYGITSDGRIIFVNASTCDINYLPNNAPIVFDVTLPPGFRKDLEHHHHHH”: “soluble”; “MEYWHYVETTSSGQPLLREGEKDIFIDQSVGLYHGKSKILQRQRGRIFLTSQRIIYIDDAKPTQNSLGLELDDLAYVNYSSGFLTRSPRLILFFKDPSSKDELGKSAETASADVVSTWVCPICMVSNETQGEFTKDTLPTPICINCGVPADYELTKSSINCSNAIDPNANPQNQFGVNSENICPACTFANHPQIGNCEICGHRLPNASKVRSKLNRLNFHDSRVHIELEKNSLARNKSSHSALSSSSSTGSSTEFVQLSFRKSDGVLFSQATERALENILTEKNKHIFNQNVVSVNGVDMRKGASSHEYNNEVPFIETKLSRIGISSLEKSRENQLLNNDILFNNALTDLNKLMSLATSIERLYKNSNITMKTKTLNLQDESTVNEPKTRRPLLILDREKFLNKELFLDEIAREIYEFTLSEFKDLNSDTNYMIITLVDLYAMYNKSMRIGTGLISPMEMREACERFEHLGLNELKLVKVNKRILCVTSEKFDVVKEKLVDLIGDNPGSDLLRLTQILSSNNSKSNWTLGILMEVLQNCVDEGDLLIDKQLSGIYYYKNSYWPSHI”: “soluble”.
In the case of “MFAHPANTSAASDNVSKAKLLKMLNAERKENASKDQLIESLKNQLASGGSQKIMEFYRTSVEDLQTKVMRQETIIMEQSKTIEMLSIERSKSVKVHEDQINEMQEVMDKKVKQLEENYEERLKESGNESTASFDKESRDDSLEDFVEVSINEILETAESKRKLKERINHMETHCMTMLKETMEDNKLYSAQLKDQKKQFEVLQNEKAQWEKKEIQQTMELENLRLRLRDIVSLENLIL”, the “soluble on expression in E. coli” value was “not soluble”.
“MFALPQAGDRRGEIIKVLLSNGWDYMNGLLTLGKVGEPQIPTPEVLTKILVELGPFYIKLGQLLSTRPDLLPPRYINALTALQSNVPPLPWSAIEDLLQREFPQPLGETFQEIESEPIAALEHHHHHH”: the “soluble on expression in E. coli” value was “not soluble”.
As for “MFAMTSIAVIGGGKIGEALISGLVASGMSPKDIHVTNRNAERAQELKERYGVLTFLENIAAVDDVDMVFLCVKPQQVIPVVEEIADVVDNNTSTTIVSMAAGVTNAMIEESLAAGSPVIRVMPNTPMLVGKGMSVVAPGRYADEDTVASLTQLLEAVGSVEVIEESSMDAVVALSGSSPAYLFLMVEALIDAGVFLGLPRDKAKNLAVSSFAGAATMLEQTGEEPAVLRANVSSPGGTTIAAIREFEESGLRAAVYRAATAAATRNSSLG”, the “soluble on expression in E. coli” value is listed as “not soluble”.
Turning to “MFARSAQRFSDGDRLEVGGWPVRLKVDGRARRISLRVDRARSEIVALSPTPRRLNEAVAFAQEKAGWIAKQLAALPERMSLAPGGVLRLNDKPFRLEVGAGRARIDGDRIVAPDDANWGLKVIRLAKREALTVLTERTAIHAAALGRPVPSVAIADPKARWGSCRPATSRAPAAIRYSWRLILAPAVVADYVAAHECAHLIEANHGPRFWALCEQLIGDPTPHRAWLRAHAAELHAIGALEHHHHHH”, the “soluble on expression in E. coli” value was “not soluble”.
Turning to “MFEEKASSPSGKMGGEEKPIGAGEEKQKEGGKKKNKEGSGDGGRAELNPWPEYIYTRLEMYNILKAEHDSILAEKAEKDSKPIKVTLPDGKQVDAESWKTTPYQIACGISQGLADNTVIAKVNNVVWDLDRPLEEDCTLELLKFEDEEAQAVYWHSSAHIMGEAMERVYGGCLCYGPPIENGFYYDMYLEEGGVSSNDFSSLEALCKKIIKEKQAFERLEVKKETLLAMFKYNKFKCRILNEKVNTPTTTVYRCGPLIDLCRGPHVRHTGKIKALKIHKNSSTYWEGKADMETLQRIYGISFPDPKMLKEWEKFQEEAKNRDHRKIGRDQELYFFHELSPGSCFFLPKGAYIYNALIEFIRSEYRKRGFQEVVTPNIFNSRLWMTSGHWQHYSENMFSFEVEKELFALKPMNCPGHCLMFDHRPRSWRELPLRLADFGVLHRNELSGALTGLTRVRRFQQDDAHIFCAMEQIEDEIKGCLDFLRTVYSVFGFSFKLNLSTRPEKFLGDIEVWDQAEKQLENSLNEFGEKWELNSGDGAFYGPKIDIQIKDAIGRYHQCATIQLDFQLPIRFNLTYVSHDGDDKKRPVIVHRAILGSVERMIAILTENYGGKWPFWLSPRQVMVVPVGPTCDEYAQKVRQQFHDAKFMADIDLDPGCTLNKKIRNAQLAQYNFILVVGEKEKISGTVNIRTRDNKVHGERTISETIERLQQLKEFRSKQAEEEF”, the “soluble on expression in E. coli” value is “soluble”.
For “MFEFEQLPNEMQLEVLKRTEFRTIQSMKTVSKRVQHFIQLYQRYMLPIPIRQMFVTPEKISFTLANSNEINTINHDDMDKYLRGAKVDLLWLEMNGSEDEPIEFLQKVIQKTNFTRIDCLKLGSSKVECDVTKLENCMASLVCAELIVDWRFRVPEDFFNELHVEKLTRLTIGNQESRNFYHPLSGDHFRKFRGDWLEIGQNRLRSSDISTFLKNWKLGSISWIEMYNIVISFPIPELLILLKNESCQKTPTTWKVSRDLDEGKEELEIGFFKSTNFSKQPSLVIRQLKILEYLW”, the “soluble on expression in E. coli” value is listed as “not soluble”.
For “MFFLEHGKVRTFLTPTLRCPMEKTTTQELLAQAEKICAQRNVRLTPQRLEVLRLMSLQDGAISAYDLLDLLREAEPQAKPPTVYRALDFLLEQGFVHKVESTNSYVLCHLFDQPTHTSAMFICDRCGAVKEECAEGVEDIMHTLAAKMGFALRHNVIEAHGLCAACVEVEACRHPEQCQHDHSVQVKKKPR”, the “soluble on expression in E. coli” value is “not soluble”.
Next, “MFFRCCMKIVQIIGGLGNQMFQFAFYLALKEKYVNVKLDTSSFGAYTHNGFELDKVFHVEYLKASIRERIKLSYQGSEIWIRVLRKLLKRKKTEYVEPYLCFDENAISLSCDKYYIGYWQSYKYFTNIEAAIRGQFHFSKVLSDKNEFIKKQMQNSNSVSLHVRLGDYVNNPAYSNICTSAYYNKAINIIQSKVSEPKFFVFSDDTVWCKDHLKIPNCHIIDWNNKEESYWDMCLMTYCKHNIIANSSFSWWGAWLNTNPERIVIAPGKWINDDRVQVSDIIPSDWICVLEHHHHHH”: “not soluble”; “MFGFLRKSQPVPQPQEATSDTIATQHTSAPLSNDMMLLMAEEIPMLDSNSRVRVYEILEQYDGPTICSQEELPREIREMMDL”: “not soluble”.
